Molecular target: T1, TRAIL (Recombinant Human TRAIL, BioLegend) (human, UniProt P50591 39-281)
T1 construct: TRAIL (TNFSF10), human, recombinant soluble protein from BioLegend; The catalogue number is printed for the ELISA; SPR names BioLegend only; also called TNFSF10; soluble TRAIL; source: bought: BioLegend (cat.no 752902)
Assay: SPR; Biacore T100; gpUL4-V5 amine-coupled to a CM5 chip (5000RU), control surface soluble UL141 subtracted; TRAIL or TNFα flowed over (100 nM; kinetics from 3.125, 6.25, 12.5, 25 and 50 nM TRAIL, 1:1 binding fit); 10 mM HEPES, 150 mM NaCl, 0.005% TWEEN-20, pH 7.4
Conditions: both partners purified

T1 sequence (P50591 39-281): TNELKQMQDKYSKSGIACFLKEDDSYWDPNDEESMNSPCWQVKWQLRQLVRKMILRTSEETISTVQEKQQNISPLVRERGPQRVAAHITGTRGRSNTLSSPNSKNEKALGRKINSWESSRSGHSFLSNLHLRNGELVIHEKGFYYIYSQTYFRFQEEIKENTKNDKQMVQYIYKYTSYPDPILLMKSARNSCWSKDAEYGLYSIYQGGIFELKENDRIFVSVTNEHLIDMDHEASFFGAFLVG

B1: gpUL4-V5 (HCMV strain Merlin UL4 gene product with C-terminal V5/avitag/6his epitope tag) (natural protein)
chain: FCIFVSCSISTTTAPVEWKSPDRQIPMNITCANYSGTVNGNVTFRGLQNKTEDFLHWLLGWGHKSICSFFPKLQGNKEQHYMYGITNLTYNCTYDRLTLLNLTTENSGKYYFKREDVNSTFYYSCYNLTVT
modifications: N-linked and O-linked glycosylation on the secreted form (eight consensus N-linked sites; positions not given)
notes: the secreted form from the supernatant was used; Secreted glycoprotein; The tag is V5/avitag/6his in this order at the C-terminus; also called UL4 protein; not shown: V5, C-terminal, kept
Kd: 0.234 nM
koff: 0.0002 s⁻¹
kon: 867000 M⁻¹ s⁻¹
